In patent US20140087995A1 (published 2014):
Numbered stars: 1 amine (or outer) side, 2 acyl side, 3 side chain; on linkers, the order of the positions; unused ones are H or OH. Bridge positions count the residues as written; N and C are the ends. * marks the point of attachment. C20 diacid = O=C(O)CCCCCCCCCCCCCCCCCCC(=O)*; γGlu = O=C(O)[C@H](CCC(=O)[*:2])N[*:1]

T1: human calcitonin receptor (human, UniProt P30988 25-474)
T1 construct: whole, on cells; also called hCTR; hCT
T1 sequence (looked up): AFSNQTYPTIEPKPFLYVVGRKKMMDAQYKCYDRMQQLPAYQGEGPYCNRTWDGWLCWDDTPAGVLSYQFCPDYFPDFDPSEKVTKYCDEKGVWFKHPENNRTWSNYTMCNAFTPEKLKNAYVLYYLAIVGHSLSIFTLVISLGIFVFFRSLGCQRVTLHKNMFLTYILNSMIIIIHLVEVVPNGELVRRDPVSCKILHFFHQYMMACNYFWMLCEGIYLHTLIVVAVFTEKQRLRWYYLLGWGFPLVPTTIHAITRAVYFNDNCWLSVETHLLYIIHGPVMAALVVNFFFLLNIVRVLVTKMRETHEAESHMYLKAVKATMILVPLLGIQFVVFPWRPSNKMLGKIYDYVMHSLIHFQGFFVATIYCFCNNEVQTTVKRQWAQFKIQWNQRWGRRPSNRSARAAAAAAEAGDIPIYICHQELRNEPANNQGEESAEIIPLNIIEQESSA


How the values were obtained:
[1] = biological target: T1, human calcitonin receptor; assay: ratio of IC50 at hCTR to IC50 at the human amylin receptor (reference)
Description: The resulting pellet was resuspended, homogenized and centrifuged (20.000 rpm, 15 min) in a buffer containing 20 mM Na-HEPES and 0.1 mM EDTA (pH 7.4, buffer 2). The resulting pellet was resuspended in buffer 2 and protein concentration was measured (BCA protein Assay, Pierce). The homogenate was kept cold during the whole procedure. The membranes were kept at −80° C. until use. The assay was performed in a 384 well Optiplate (PerkinElmer) in a total volume of 40 ul. Membranes were mixed with SPA beads. Final concentration of membranes 35 ng/μL final and SPA beads was 0.05 mg/well. Test-compounds were dissolved in DMSO and further diluted in assay buffer (50 mM Hepes, pH 7.4, 1 mM CaCl2, 5 mM MgCl₂, 0.1% OA and 0.02% Tween20). […] The final mixture was incubated with shaking at 400 rpm for 120 min at 25° C. prior to centrifugation (1500 rpm, 10 min). Samples were analyzed on TopCounter™ (Packard). The IC₅₀ was calculated using (one site binding competition analysis) GraphPad Prism5 as a measure of receptor affinity.
Membranes were prepared in the following way; the cells were rinsed with PBS and incubated with Versene for approximately 5 min before harvesting. The cells were flushed with PBS and the cell-suspension was centrifuged for 5 min at 1000 rpm. Cells were homogenized (Ultrathurrax) in a buffer containing 20 mM Na-HEPES and 10 mM EDTA (pH 7.4) and centrifuged at 20.000 rpm for 15 min. The resulting pellet was resuspended, homogenized and centrifuged (20.000 rpm, 15 min) in a buffer containing 20 mM Na-HEPES and 0.1 mM EDTA (pH 7.4, buffer 2). The resulting pellet was resuspended in buffer 2 and protein concentration was measured (BCA protein Assay, Pierce). The homogenate was kept cold during the whole procedure. The membranes were kept at −80° C. until use. Assay was performed in a 384 well Optiplate (PerkinElmer) in a total volume of 40 ul. Membranes were mixed with SPA beads.

[2] = biological target: T1, human calcitonin receptor; assay: SPA competition binding, membranes with human calcitonin receptor, displacement of 125I-calcitonin (Assay VII)
Description: Membranes were prepared in the following way; the cells were rinsed with PBS and incubated with Versene for approximately 5 min before harvesting. The cells were flushed with PBS and the cell-suspension was centrifuged for 5 min at 1000 rpm. Cells were homogenized (Ultrathurrax) in a buffer containing 20 mM Na-HEPES and 10 mM EDTA (pH 7.4) and centrifuged at 20.000 rpm for 15 min. The resulting pellet was resuspended, homogenized and centrifuged (20.000 rpm, 15 min) in a buffer containing 20 mM Na-HEPES and 0.1 mM EDTA (pH 7.4, buffer 2). The resulting pellet was resuspended in buffer 2 and protein concentration was measured (BCA protein Assay, Pierce). The homogenate was kept cold during the whole procedure. The membranes were kept at −80° C. until use. Assay was performed in a 384 well Optiplate (PerkinElmer) in a total volume of 40 ul. Membranes were mixed with SPA beads. Final concentration of membranes 35 ng/μL final and Final concentration of SPA beads was 0.05 mg/well. Test-compounds were dissolved in DMSO and further diluted in assay buffer (50 mM Hepes, pH 7.4, 1 mM CaCl2, 5 mM MgCl₂, 0.1% OA and 0.02% Tween20). […] The final mixture was incubated for 120 min with shaking at 400 rpm at 25° C. prior to centrifugation (1500 rpm, 10 min). Samples were analyzed on TopCounter™ (Packard). The […] was calculated using (one site binding competition analysis) GraphPad Prism5 as a measure of receptor affinity.

Binder | Ratio hCT/hAmylin binding [1] | IC50 [2] [nM]
{C20 diacid-γGlu}-KCNTATCATQRLAEFLRHSSPNFGAIPSSTNVGSRTY-NH2 (disulfide 2-7; SMILES CC[C@H](C)[C@H](NC(=O)[C@H](C)NC(=O)CNC(=O)[C@H](Cc1ccccc1)NC(=O)[C@H](CC(N)=O)NC(=O)[C@@H]1CCCN1C(=O)[C@H](CO)NC(=O)[C@H](CO)NC(=O)[C@H](Cc1c[nH]cn1)NC(=O)[C@H](CCCNC(=N)N)NC(=O)[C@H](CC(C)C)NC(=O)[C@H](Cc1ccccc1)NC(=O)[C@H](CCC(=O)O)NC(=O)[C@H](C)NC(=O)[C@H](CC(C)C)NC(=O)[C@H](CCCNC(=N)N)NC(=O)[C@H](CCC(N)=O)NC(=O)[C@@H](NC(=O)[C@H](C)NC(=O)[C@@H]1CSSC[C@H](NC(=O)[C@H](CCCCN)NC(=O)CC[C@H](NC(=O)CCCCCCCCCCCCCCCCCCC(=O)O)C(=O)O)C(=O)N[C@@H](CC(N)=O)C(=O)N[C@@H]([C@@H](C)O)C(=O)N[C@@H](C)C(=O)N[C@@H]([C@@H](C)O)C(=O)N1)[C@@H](C)O)C(=O)N1CCC[C@H]1C(=O)N[C@@H](CO)C(=O)N[C@@H](CO)C(=O)N[C@H](C(=O)N[C@@H](CC(N)=O)C(=O)N[C@H](C(=O)NCC(=O)N[C@@H](CO)C(=O)N[C@@H](CCCNC(=N)N)C(=O)N[C@H](C(=O)N[C@@H](Cc1ccc(O)cc1)C(N)=O)[C@@H](C)O)C(C)C)[C@@H](C)O, also called compound 16) | 19.1 | 17.1
{C20 diacid-γGlu}-KCNTATCATQRLAEFLRHSSPNFGAPLSSTNVGSNTY-NH2 (disulfide 2-7; SMILES CC(C)C[C@H](NC(=O)[C@H](CCCNC(=N)N)NC(=O)[C@H](CCC(N)=O)NC(=O)[C@@H](NC(=O)[C@H](C)NC(=O)[C@@H]1CSSC[C@H](NC(=O)[C@H](CCCCN)NC(=O)CC[C@H](NC(=O)CCCCCCCCCCCCCCCCCCC(=O)O)C(=O)O)C(=O)N[C@@H](CC(N)=O)C(=O)N[C@@H]([C@@H](C)O)C(=O)N[C@@H](C)C(=O)N[C@@H]([C@@H](C)O)C(=O)N1)[C@@H](C)O)C(=O)N[C@@H](C)C(=O)N[C@@H](CCC(=O)O)C(=O)N[C@@H](Cc1ccccc1)C(=O)N[C@@H](CC(C)C)C(=O)N[C@@H](CCCNC(=N)N)C(=O)N[C@@H](Cc1c[nH]cn1)C(=O)N[C@@H](CO)C(=O)N[C@@H](CO)C(=O)N1CCC[C@H]1C(=O)N[C@@H](CC(N)=O)C(=O)N[C@@H](Cc1ccccc1)C(=O)NCC(=O)N[C@@H](C)C(=O)N1CCC[C@H]1C(=O)N[C@@H](CC(C)C)C(=O)N[C@@H](CO)C(=O)N[C@@H](CO)C(=O)N[C@H](C(=O)N[C@@H](CC(N)=O)C(=O)N[C@H](C(=O)NCC(=O)N[C@@H](CO)C(=O)N[C@@H](CC(N)=O)C(=O)N[C@H](C(=O)N[C@@H](Cc1ccc(O)cc1)C(N)=O)[C@@H](C)O)C(C)C)[C@@H](C)O, also called compound 7) [N^α1-[(4S)-4-carboxy-4-(19-carboxynonadecanoylamino)butanoyl]-[Glu14,Arg17,Pro21,Pro26]-h-amylin] | 16.5 | 11.1
{C20 diacid-γGlu}-KCNTATCATQRLAEFLRHSSPNFGPILPPTNVGSNTY-NH2 (disulfide 2-7; SMILES CC[C@H](C)[C@H](NC(=O)[C@@H]1CCCN1C(=O)CNC(=O)[C@H](Cc1ccccc1)NC(=O)[C@H](CC(N)=O)NC(=O)[C@@H]1CCCN1C(=O)[C@H](CO)NC(=O)[C@H](CO)NC(=O)[C@H](Cc1c[nH]cn1)NC(=O)[C@H](CCCNC(=N)N)NC(=O)[C@H](CC(C)C)NC(=O)[C@H](Cc1ccccc1)NC(=O)[C@H](CCC(=O)O)NC(=O)[C@H](C)NC(=O)[C@H](CC(C)C)NC(=O)[C@H](CCCNC(=N)N)NC(=O)[C@H](CCC(N)=O)NC(=O)[C@@H](NC(=O)[C@H](C)NC(=O)[C@@H]1CSSC[C@H](NC(=O)[C@H](CCCCN)NC(=O)CC[C@H](NC(=O)CCCCCCCCCCCCCCCCCCC(=O)O)C(=O)O)C(=O)N[C@@H](CC(N)=O)C(=O)N[C@@H]([C@@H](C)O)C(=O)N[C@@H](C)C(=O)N[C@@H]([C@@H](C)O)C(=O)N1)[C@@H](C)O)C(=O)N[C@@H](CC(C)C)C(=O)N1CCC[C@H]1C(=O)N1CCC[C@H]1C(=O)N[C@H](C(=O)N[C@@H](CC(N)=O)C(=O)N[C@H](C(=O)NCC(=O)N[C@@H](CO)C(=O)N[C@@H](CC(N)=O)C(=O)N[C@H](C(=O)N[C@@H](Cc1ccc(O)cc1)C(N)=O)[C@@H](C)O)C(C)C)[C@@H](C)O, also called compound 6) | 20 | 19.9

The remaining binders from weak to strong by IC50 [2], led by results:

Ratio hCT/hAmylin binding [1] | IC50 [2] [nM] | Binder
2.1 | 0.688 | {C20 diacid-γGlu}-KCNTATCATQRLAEFLRHSSPNFGPILPPTNVGSNTP-NH2 (disulfide 2-7; SMILES CC[C@H](C)[C@H](NC(=O)[C@@H]1CCCN1C(=O)CNC(=O)[C@H](Cc1ccccc1)NC(=O)[C@H](CC(N)=O)NC(=O)[C@@H]1CCCN1C(=O)[C@H](CO)NC(=O)[C@H](CO)NC(=O)[C@H](Cc1c[nH]cn1)NC(=O)[C@H](CCCNC(=N)N)NC(=O)[C@H](CC(C)C)NC(=O)[C@H](Cc1ccccc1)NC(=O)[C@H](CCC(=O)O)NC(=O)[C@H](C)NC(=O)[C@H](CC(C)C)NC(=O)[C@H](CCCNC(=N)N)NC(=O)[C@H](CCC(N)=O)NC(=O)[C@@H](NC(=O)[C@H](C)NC(=O)[C@@H]1CSSC[C@H](NC(=O)[C@H](CCCCN)NC(=O)CC[C@H](NC(=O)CCCCCCCCCCCCCCCCCCC(=O)O)C(=O)O)C(=O)N[C@@H](CC(N)=O)C(=O)N[C@@H]([C@@H](C)O)C(=O)N[C@@H](C)C(=O)N[C@@H]([C@@H](C)O)C(=O)N1)[C@@H](C)O)C(=O)N[C@@H](CC(C)C)C(=O)N1CCC[C@H]1C(=O)N1CCC[C@H]1C(=O)N[C@H](C(=O)N[C@@H](CC(N)=O)C(=O)N[C@H](C(=O)NCC(=O)N[C@@H](CO)C(=O)N[C@@H](CC(N)=O)C(=O)N[C@H](C(=O)N1CCC[C@H]1C(N)=O)[C@@H](C)O)C(C)C)[C@@H](C)O, also called compound 4)
1.4 | 0.537 | {C20 diacid-γGlu}-KCNTATCATQRLAEFLRHSSPNFGAPLSSTNVGSNTP-NH2 (disulfide 2-7; SMILES CC(C)C[C@H](NC(=O)[C@H](CCCNC(=N)N)NC(=O)[C@H](CCC(N)=O)NC(=O)[C@@H](NC(=O)[C@H](C)NC(=O)[C@@H]1CSSC[C@H](NC(=O)[C@H](CCCCN)NC(=O)CC[C@H](NC(=O)CCCCCCCCCCCCCCCCCCC(=O)O)C(=O)O)C(=O)N[C@@H](CC(N)=O)C(=O)N[C@@H]([C@@H](C)O)C(=O)N[C@@H](C)C(=O)N[C@@H]([C@@H](C)O)C(=O)N1)[C@@H](C)O)C(=O)N[C@@H](C)C(=O)N[C@@H](CCC(=O)O)C(=O)N[C@@H](Cc1ccccc1)C(=O)N[C@@H](CC(C)C)C(=O)N[C@@H](CCCNC(=N)N)C(=O)N[C@@H](Cc1c[nH]cn1)C(=O)N[C@@H](CO)C(=O)N[C@@H](CO)C(=O)N1CCC[C@H]1C(=O)N[C@@H](CC(N)=O)C(=O)N[C@@H](Cc1ccccc1)C(=O)NCC(=O)N[C@@H](C)C(=O)N1CCC[C@H]1C(=O)N[C@@H](CC(C)C)C(=O)N[C@@H](CO)C(=O)N[C@@H](CO)C(=O)N[C@H](C(=O)N[C@@H](CC(N)=O)C(=O)N[C@H](C(=O)NCC(=O)N[C@@H](CO)C(=O)N[C@@H](CC(N)=O)C(=O)N[C@H](C(=O)N1CCC[C@H]1C(N)=O)[C@@H](C)O)C(C)C)[C@@H](C)O, also called compound 5)
